The target in assay [1] is acetylcholine receptor. Nature of the assay: SPR, acetylcholine receptor on CM5 chip, peptide 10 µM.
Assay [2] has as its target acetylcholine receptor. Briefly: SPR, AchR on CM5 chip, peptide 10 µM. On the technique in general: SPR reads the build-up and loss of mass on a sensor chip optically.

For RSFTKK [6mer-2-550], the Binding affinity (RU) in the assay with acetylcholine receptor [1] was 148 RU.

For KRPMAK [6mer-1-1197], the Binding affinity (RU) with acetylcholine receptor [2] stood at 21 RU.

Molecule KSVCKK [6mer-2-558] gave a Binding affinity (RU) with acetylcholine receptor [1] of 154 RU.

Take RGLLRR [6mer-2-552]: the Binding affinity (RU) with acetylcholine receptor [1] amounted to 148 RU.

Molecule KGQLRR [6mer-2-559] came in with a Binding affinity (RU) with acetylcholine receptor [1] of 121 RU.

In turn, KWVLRK [6mer-2-557] had a Binding affinity (RU) with acetylcholine receptor [1] of 123 RU.

In turn, RRHTMR [6mer-1-1177] showed a Binding affinity (RU) in the assay with acetylcholine receptor [2] of 21 RU.

Consider RWRCRR [6mer-2-554], for which, in the assay with acetylcholine receptor [1], the Binding affinity (RU) is 121 RU.

Consider KRMTPR [6mer-1-1179], for which the Binding affinity (RU) with acetylcholine receptor [2] came to 40 RU.

For KVLCKR [6mer-2-537], the Binding affinity (RU) in the assay with acetylcholine receptor [1] stood at 153 RU.

Molecule KRLTRR [6mer-2-540] registered a Binding affinity (RU) with acetylcholine receptor [1] of 142 RU.

As for KQFCKK [6mer-2-538], in the assay with acetylcholine receptor [1], the Binding affinity (RU) is 125 RU.

Regarding KRDEDK [6mer-1-1195], in the assay with acetylcholine receptor [2], the Binding affinity (RU) is 25 RU.

RSVSKK [6mer-2-555]: the Binding affinity (RU) with acetylcholine receptor [1] is 154 RU.

In the assay with acetylcholine receptor [1], RWQCKR [6mer-2-547] returned a Binding affinity (RU) of 135 RU.

In the assay with acetylcholine receptor [1], RSLQKK [6mer-2-553] displayed a Binding affinity (RU) of 124 RU.

In the case of KKCMKR [6mer-1-1190], the Binding affinity (RU) in the assay with acetylcholine receptor [2] is 29 RU.

Take RRMNER [6mer-1-1188]: in the assay with acetylcholine receptor [2], the Binding affinity (RU) stood at 41 RU.

RKKMAK [6mer-1-1178] yielded a Binding affinity (RU) with acetylcholine receptor [2] of 29 RU.

Consider KRPPPK [6mer-1-1180], for which the Binding affinity (RU) in the assay with acetylcholine receptor [2] stood at 34 RU.

Take KWYTKK [6mer-2-539]: the Binding affinity (RU) with acetylcholine receptor [1] turned out to be 127 RU.

With KWYTKR [6mer-2-551], the Binding affinity (RU) in the assay with acetylcholine receptor [1] is 141 RU.

For the molecule RQIYRR [6mer-2-542], the Binding affinity (RU) with acetylcholine receptor [1] worked out at 148 RU.

On to RKDAIR [6mer-1-1174], for which the Binding affinity (RU) with acetylcholine receptor [2] stood at 30 RU.

Molecule RKDDDR [6mer-1-1192] displayed a Binding affinity (RU) with acetylcholine receptor [2] of 36 RU.

RKYTKK [6mer-1-1191] had a Binding affinity (RU) with acetylcholine receptor [2] of 39 RU.

RRDTVK [6mer-1-1184] showed a Binding affinity (RU) in the assay with acetylcholine receptor [2] of 30 RU.

In the case of RKTWEK [6mer-1-1175], the Binding affinity (RU) with acetylcholine receptor [2] turned out to be 23 RU.

For the molecule KLFCRR [6mer-2-535], the Binding affinity (RU) with acetylcholine receptor [1] is 133 RU.

In turn, KKEMMK [6mer-1-1185] showed a Binding affinity (RU) in the assay with acetylcholine receptor [2] of 29 RU.

Consider KQLCKK [6mer-2-549], for which, in the assay with acetylcholine receptor [1], the Binding affinity (RU) came out at 142 RU.

The molecule RRQYRR [6mer-2-543] registered a Binding affinity (RU) in the assay with acetylcholine receptor [1] of 144 RU.

Regarding KKADHK [6mer-1-1176], the Binding affinity (RU) with acetylcholine receptor [2] is 21 RU.

As to KKTCHR [6mer-1-1182], the Binding affinity (RU) with acetylcholine receptor [2] was 35 RU.

Consider KKPTNK [6mer-1-1193], for which, in the assay with acetylcholine receptor [2], the Binding affinity (RU) is 33 RU.

On to KGQCRK [6mer-2-541], for which the Binding affinity (RU) with acetylcholine receptor [1] turned out to be 126 RU.

In the case of KKCHWR [6mer-1-1189], the Binding affinity (RU) with acetylcholine receptor [2] is 40 RU.

In the assay with acetylcholine receptor [2], RKIHNK [6mer-1-1183] showed a Binding affinity (RU) of 35 RU.

In the assay with acetylcholine receptor [1], KLYCRK [6mer-2-545] registered a Binding affinity (RU) of 125 RU.

The molecule KKTHAK [6mer-1-1194] displayed a Binding affinity (RU) in the assay with acetylcholine receptor [2] of 22 RU.

With RRVLKK [6mer-2-561], the Binding affinity (RU) in the assay with acetylcholine receptor [1] turned out to be 142 RU.

As to RRHAHK [6mer-1-1187], the Binding affinity (RU) with acetylcholine receptor [2] is 26 RU.

In turn, RQYTRR [6mer-2-560] gave a Binding affinity (RU) with acetylcholine receptor [1] of 153 RU.

In the assay with acetylcholine receptor [1], KVIQKR [6mer-2-544] yielded a Binding affinity (RU) of 147 RU.

As for RRMDAK [6mer-1-1181], the Binding affinity (RU) with acetylcholine receptor [2] stood at 21 RU.

On to KKTTGR [6mer-1-1196], for which, in the assay with acetylcholine receptor [2], the Binding affinity (RU) is 25 RU.

On to KKNNAK [6mer-1-1186], for which, in the assay with acetylcholine receptor [2], the Binding affinity (RU) was determined as 37 RU.

In turn, RSICKK [6mer-2-556] gave a Binding affinity (RU) in the assay with acetylcholine receptor [1] of 148 RU.

For the molecule RVFTKK [6mer-2-546], the Binding affinity (RU) with acetylcholine receptor [1] came to 127 RU.

In turn, RWQRKK [6mer-2-536] yielded a Binding affinity (RU) in the assay with acetylcholine receptor [1] of 125 RU.

In the assay with acetylcholine receptor [1], RLQCRR [6mer-2-548] registered a Binding affinity (RU) of 142 RU.

The values are drawn from US20250011363A1, “OPTIMIZED SHORTENED PEPTIDE THAT BINDS TO ACETYLCHOLINE RECEPTOR, AND USE THEREOF” (SKINMED CO., LTD., priority 2021, published 2025).
